Reference: paper doi:10.1101/2020.01.02.893016 (bioRxiv, 2020)

Molecular target: T1, ROOTY (RTY) protein, wild type, C-S lyase (Arabidopsis thaliana, UniProt Q9SIV0 1-462)
T1 sequence (looked up): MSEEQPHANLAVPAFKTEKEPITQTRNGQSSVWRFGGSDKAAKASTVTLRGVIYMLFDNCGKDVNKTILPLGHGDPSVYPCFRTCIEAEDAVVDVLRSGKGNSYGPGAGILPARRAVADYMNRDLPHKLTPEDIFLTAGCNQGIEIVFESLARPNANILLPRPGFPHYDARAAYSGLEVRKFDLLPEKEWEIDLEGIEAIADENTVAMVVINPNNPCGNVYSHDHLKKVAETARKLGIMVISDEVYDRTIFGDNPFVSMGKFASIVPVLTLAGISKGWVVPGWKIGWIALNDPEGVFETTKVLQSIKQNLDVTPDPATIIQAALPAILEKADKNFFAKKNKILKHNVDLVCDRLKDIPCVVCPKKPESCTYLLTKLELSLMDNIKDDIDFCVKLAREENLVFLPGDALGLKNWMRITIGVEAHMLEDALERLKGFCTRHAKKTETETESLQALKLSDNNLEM
Assay: two-hybrid

B1: ROOTY (RTY) protein, D315N mutant (TG8B allele) (enzyme, Arabidopsis thaliana, UniProt Q9SIV0 1-462, looked up)
chain: MSEEQPHANLAVPAFKTEKEPITQTRNGQSSVWRFGGSDKAAKASTVTLRGVIYMLFDNCGKDVNKTILPLGHGDPSVYPCFRTCIEAEDAVVDVLRSGKGNSYGPGAGILPARRAVADYMNRDLPHKLTPEDIFLTAGCNQGIEIVFESLARPNANILLPRPGFPHYDARAAYSGLEVRKFDLLPEKEWEIDLEGIEAIADENTVAMVVINPNNPCGNVYSHDHLKKVAETARKLGIMVISDEVYDRTIFGDNPFVSMGKFASIVPVLTLAGISKGWVVPGWKIGWIALNDPEGVFETTKVLQSIKQNLDVTPNPATIIQAALPAILEKADKNFFAKKNKILKHNVDLVCDRLKDIPCVVCPKKPESCTYLLTKLELSLMDNIKDDIDFCVKLAREENLVFLPGDALGLKNWMRITIGVEAHMLEDALERLKGFCTRHAKKTETETESLQALKLSDNNLEM
beta-galactosidase activity relative to WT-WT: ~80%
